Data from article doi:10.1101/2022.06.02.494603 (bioRxiv, 2022).

B1: TBK1 I710N, untagged (natural protein, human, UniProt Q9UHD2 1-729, looked up)
chain: MQSTSNHLWLLSDILGQGATANVFRGRHKKTGDLFAIKVFNNISFLRPVDVQMREFEVLKKLNHKNIVKLFAIEEETTTRHKVLIMEFCPCGSLYTVLEEPSNAYGLPESEFLIVLRDVVGGMNHLRENGIVHRDIKPGNIMRVIGEDGQSVYKLTDFGAARELEDDEQFVSLYGTEEYLHPDMYERAVLRKDHQKKYGATVDLWSIGVTFYHAATGSLPFRPFEGPRRNKEVMYKIITGKPSGAISGVQKAENGPIDWSGDMPVSCSLSRGLQVLLTPVLANILEADQEKCWGFDQFFAETSDILHRMVIHVFSLQQMTAHKIYIHSYNTATIFHELVYKQTKIISSNQELIYEGRRLVLEPGRLAQHFPKTTEENPIFVVSREPLNTIGLIYEKISLPKVHPRYDLDGDASMAKAITGVVCYACRIASTLLLYQELMRKGIRWLIELIKDDYNETVHKKTEVVITLDFCIRNIEKTVKVYEKLMKINLEAAELGEISDIHTKLLRLSSSQGTIETSLQDIDSRLSPGGSLADAWAHQEGTHPKDRNVEKLQVLLNCMTEIYYQFKKDKAERRLAYNEEQIHKFDKQKLYYHATKAMTHFTDECVKKYEAFLNKSEEWIRKMLHLRKQLLSLTNQCFDIEEEVSKYQEYTNELQETLPQKMFTASSGIKHTMTPIYPSSNTLVEMTLGMKKLKEEMEGVVKELAENNHNLERFGSLTMDGGLRNVDCL
B2: TBK1 Q581H, untagged (natural protein, human, UniProt Q9UHD2 1-729, looked up)
chain: MQSTSNHLWLLSDILGQGATANVFRGRHKKTGDLFAIKVFNNISFLRPVDVQMREFEVLKKLNHKNIVKLFAIEEETTTRHKVLIMEFCPCGSLYTVLEEPSNAYGLPESEFLIVLRDVVGGMNHLRENGIVHRDIKPGNIMRVIGEDGQSVYKLTDFGAARELEDDEQFVSLYGTEEYLHPDMYERAVLRKDHQKKYGATVDLWSIGVTFYHAATGSLPFRPFEGPRRNKEVMYKIITGKPSGAISGVQKAENGPIDWSGDMPVSCSLSRGLQVLLTPVLANILEADQEKCWGFDQFFAETSDILHRMVIHVFSLQQMTAHKIYIHSYNTATIFHELVYKQTKIISSNQELIYEGRRLVLEPGRLAQHFPKTTEENPIFVVSREPLNTIGLIYEKISLPKVHPRYDLDGDASMAKAITGVVCYACRIASTLLLYQELMRKGIRWLIELIKDDYNETVHKKTEVVITLDFCIRNIEKTVKVYEKLMKINLEAAELGEISDIHTKLLRLSSSQGTIETSLQDIDSRLSPGGSLADAWAHQEGTHPKDRNVEKLQVLLNCMTEIYYQFKKDKAERRLAYNEEHIHKFDKQKLYYHATKAMTHFTDECVKKYEAFLNKSEEWIRKMLHLRKQLLSLTNQCFDIEEEVSKYQEYTNELQETLPQKMFTASSGIKHTMTPIYPSSNTLVEMTLGMKKLKEEMEGVVKELAENNHILERFGSLTMDGGLRNVDCL
B3: TBK1 L94S, untagged (natural protein, human, UniProt Q9UHD2 1-729, looked up)
chain: MQSTSNHLWLLSDILGQGATANVFRGRHKKTGDLFAIKVFNNISFLRPVDVQMREFEVLKKLNHKNIVKLFAIEEETTTRHKVLIMEFCPCGSSYTVLEEPSNAYGLPESEFLIVLRDVVGGMNHLRENGIVHRDIKPGNIMRVIGEDGQSVYKLTDFGAARELEDDEQFVSLYGTEEYLHPDMYERAVLRKDHQKKYGATVDLWSIGVTFYHAATGSLPFRPFEGPRRNKEVMYKIITGKPSGAISGVQKAENGPIDWSGDMPVSCSLSRGLQVLLTPVLANILEADQEKCWGFDQFFAETSDILHRMVIHVFSLQQMTAHKIYIHSYNTATIFHELVYKQTKIISSNQELIYEGRRLVLEPGRLAQHFPKTTEENPIFVVSREPLNTIGLIYEKISLPKVHPRYDLDGDASMAKAITGVVCYACRIASTLLLYQELMRKGIRWLIELIKDDYNETVHKKTEVVITLDFCIRNIEKTVKVYEKLMKINLEAAELGEISDIHTKLLRLSSSQGTIETSLQDIDSRLSPGGSLADAWAHQEGTHPKDRNVEKLQVLLNCMTEIYYQFKKDKAERRLAYNEEQIHKFDKQKLYYHATKAMTHFTDECVKKYEAFLNKSEEWIRKMLHLRKQLLSLTNQCFDIEEEVSKYQEYTNELQETLPQKMFTASSGIKHTMTPIYPSSNTLVEMTLGMKKLKEEMEGVVKELAENNHILERFGSLTMDGGLRNVDCL
B4: TBK1 R134H, untagged (natural protein, human, UniProt Q9UHD2 1-729, looked up)
chain: MQSTSNHLWLLSDILGQGATANVFRGRHKKTGDLFAIKVFNNISFLRPVDVQMREFEVLKKLNHKNIVKLFAIEEETTTRHKVLIMEFCPCGSLYTVLEEPSNAYGLPESEFLIVLRDVVGGMNHLRENGIVHHDIKPGNIMRVIGEDGQSVYKLTDFGAARELEDDEQFVSLYGTEEYLHPDMYERAVLRKDHQKKYGATVDLWSIGVTFYHAATGSLPFRPFEGPRRNKEVMYKIITGKPSGAISGVQKAENGPIDWSGDMPVSCSLSRGLQVLLTPVLANILEADQEKCWGFDQFFAETSDILHRMVIHVFSLQQMTAHKIYIHSYNTATIFHELVYKQTKIISSNQELIYEGRRLVLEPGRLAQHFPKTTEENPIFVVSREPLNTIGLIYEKISLPKVHPRYDLDGDASMAKAITGVVCYACRIASTLLLYQELMRKGIRWLIELIKDDYNETVHKKTEVVITLDFCIRNIEKTVKVYEKLMKINLEAAELGEISDIHTKLLRLSSSQGTIETSLQDIDSRLSPGGSLADAWAHQEGTHPKDRNVEKLQVLLNCMTEIYYQFKKDKAERRLAYNEEQIHKFDKQKLYYHATKAMTHFTDECVKKYEAFLNKSEEWIRKMLHLRKQLLSLTNQCFDIEEEVSKYQEYTNELQETLPQKMFTASSGIKHTMTPIYPSSNTLVEMTLGMKKLKEEMEGVVKELAENNHILERFGSLTMDGGLRNVDCL
B5: TBK1 R47H, untagged (natural protein, human, UniProt Q9UHD2 1-729, looked up)
chain: MQSTSNHLWLLSDILGQGATANVFRGRHKKTGDLFAIKVFNNISFLHPVDVQMREFEVLKKLNHKNIVKLFAIEEETTTRHKVLIMEFCPCGSLYTVLEEPSNAYGLPESEFLIVLRDVVGGMNHLRENGIVHRDIKPGNIMRVIGEDGQSVYKLTDFGAARELEDDEQFVSLYGTEEYLHPDMYERAVLRKDHQKKYGATVDLWSIGVTFYHAATGSLPFRPFEGPRRNKEVMYKIITGKPSGAISGVQKAENGPIDWSGDMPVSCSLSRGLQVLLTPVLANILEADQEKCWGFDQFFAETSDILHRMVIHVFSLQQMTAHKIYIHSYNTATIFHELVYKQTKIISSNQELIYEGRRLVLEPGRLAQHFPKTTEENPIFVVSREPLNTIGLIYEKISLPKVHPRYDLDGDASMAKAITGVVCYACRIASTLLLYQELMRKGIRWLIELIKDDYNETVHKKTEVVITLDFCIRNIEKTVKVYEKLMKINLEAAELGEISDIHTKLLRLSSSQGTIETSLQDIDSRLSPGGSLADAWAHQEGTHPKDRNVEKLQVLLNCMTEIYYQFKKDKAERRLAYNEEQIHKFDKQKLYYHATKAMTHFTDECVKKYEAFLNKSEEWIRKMLHLRKQLLSLTNQCFDIEEEVSKYQEYTNELQETLPQKMFTASSGIKHTMTPIYPSSNTLVEMTLGMKKLKEEMEGVVKELAENNHILERFGSLTMDGGLRNVDCL
B6: TBK1 R440Q, untagged (natural protein, human, UniProt Q9UHD2 1-729, looked up)
chain: MQSTSNHLWLLSDILGQGATANVFRGRHKKTGDLFAIKVFNNISFLRPVDVQMREFEVLKKLNHKNIVKLFAIEEETTTRHKVLIMEFCPCGSLYTVLEEPSNAYGLPESEFLIVLRDVVGGMNHLRENGIVHRDIKPGNIMRVIGEDGQSVYKLTDFGAARELEDDEQFVSLYGTEEYLHPDMYERAVLRKDHQKKYGATVDLWSIGVTFYHAATGSLPFRPFEGPRRNKEVMYKIITGKPSGAISGVQKAENGPIDWSGDMPVSCSLSRGLQVLLTPVLANILEADQEKCWGFDQFFAETSDILHRMVIHVFSLQQMTAHKIYIHSYNTATIFHELVYKQTKIISSNQELIYEGRRLVLEPGRLAQHFPKTTEENPIFVVSREPLNTIGLIYEKISLPKVHPRYDLDGDASMAKAITGVVCYACRIASTLLLYQELMQKGIRWLIELIKDDYNETVHKKTEVVITLDFCIRNIEKTVKVYEKLMKINLEAAELGEISDIHTKLLRLSSSQGTIETSLQDIDSRLSPGGSLADAWAHQEGTHPKDRNVEKLQVLLNCMTEIYYQFKKDKAERRLAYNEEQIHKFDKQKLYYHATKAMTHFTDECVKKYEAFLNKSEEWIRKMLHLRKQLLSLTNQCFDIEEEVSKYQEYTNELQETLPQKMFTASSGIKHTMTPIYPSSNTLVEMTLGMKKLKEEMEGVVKELAENNHILERFGSLTMDGGLRNVDCL
B7: TBK1 Q565P, untagged (natural protein, human, UniProt Q9UHD2 1-729, looked up)
chain: MQSTSNHLWLLSDILGQGATANVFRGRHKKTGDLFAIKVFNNISFLRPVDVQMREFEVLKKLNHKNIVKLFAIEEETTTRHKVLIMEFCPCGSLYTVLEEPSNAYGLPESEFLIVLRDVVGGMNHLRENGIVHRDIKPGNIMRVIGEDGQSVYKLTDFGAARELEDDEQFVSLYGTEEYLHPDMYERAVLRKDHQKKYGATVDLWSIGVTFYHAATGSLPFRPFEGPRRNKEVMYKIITGKPSGAISGVQKAENGPIDWSGDMPVSCSLSRGLQVLLTPVLANILEADQEKCWGFDQFFAETSDILHRMVIHVFSLQQMTAHKIYIHSYNTATIFHELVYKQTKIISSNQELIYEGRRLVLEPGRLAQHFPKTTEENPIFVVSREPLNTIGLIYEKISLPKVHPRYDLDGDASMAKAITGVVCYACRIASTLLLYQELMRKGIRWLIELIKDDYNETVHKKTEVVITLDFCIRNIEKTVKVYEKLMKINLEAAELGEISDIHTKLLRLSSSQGTIETSLQDIDSRLSPGGSLADAWAHQEGTHPKDRNVEKLQVLLNCMTEIYYPFKKDKAERRLAYNEEQIHKFDKQKLYYHATKAMTHFTDECVKKYEAFLNKSEEWIRKMLHLRKQLLSLTNQCFDIEEEVSKYQEYTNELQETLPQKMFTASSGIKHTMTPIYPSSNTLVEMTLGMKKLKEEMEGVVKELAENNHILERFGSLTMDGGLRNVDCL
B8: TBK1 M559R, untagged (natural protein, human, UniProt Q9UHD2 1-729, looked up)
chain: MQSTSNHLWLLSDILGQGATANVFRGRHKKTGDLFAIKVFNNISFLRPVDVQMREFEVLKKLNHKNIVKLFAIEEETTTRHKVLIMEFCPCGSLYTVLEEPSNAYGLPESEFLIVLRDVVGGMNHLRENGIVHRDIKPGNIMRVIGEDGQSVYKLTDFGAARELEDDEQFVSLYGTEEYLHPDMYERAVLRKDHQKKYGATVDLWSIGVTFYHAATGSLPFRPFEGPRRNKEVMYKIITGKPSGAISGVQKAENGPIDWSGDMPVSCSLSRGLQVLLTPVLANILEADQEKCWGFDQFFAETSDILHRMVIHVFSLQQMTAHKIYIHSYNTATIFHELVYKQTKIISSNQELIYEGRRLVLEPGRLAQHFPKTTEENPIFVVSREPLNTIGLIYEKISLPKVHPRYDLDGDASMAKAITGVVCYACRIASTLLLYQELMRKGIRWLIELIKDDYNETVHKKTEVVITLDFCIRNIEKTVKVYEKLMKINLEAAELGEISDIHTKLLRLSSSQGTIETSLQDIDSRLSPGGSLADAWAHQEGTHPKDRNVEKLQVLLNCRTEIYYQFKKDKAERRLAYNEEQIHKFDKQKLYYHATKAMTHFTDECVKKYEAFLNKSEEWIRKMLHLRKQLLSLTNQCFDIEEEVSKYQEYTNELQETLPQKMFTASSGIKHTMTPIYPSSNTLVEMTLGMKKLKEEMEGVVKELAENNHILERFGSLTMDGGLRNVDCL

Molecular target: optineurin, C-terminal myc-FLAG-tagged (UniProt Q96CV9 1-577)
Experiment: co-IP

Chain of optineurin, C-terminal myc-FLAG-tagged (Q96CV9 whole entry): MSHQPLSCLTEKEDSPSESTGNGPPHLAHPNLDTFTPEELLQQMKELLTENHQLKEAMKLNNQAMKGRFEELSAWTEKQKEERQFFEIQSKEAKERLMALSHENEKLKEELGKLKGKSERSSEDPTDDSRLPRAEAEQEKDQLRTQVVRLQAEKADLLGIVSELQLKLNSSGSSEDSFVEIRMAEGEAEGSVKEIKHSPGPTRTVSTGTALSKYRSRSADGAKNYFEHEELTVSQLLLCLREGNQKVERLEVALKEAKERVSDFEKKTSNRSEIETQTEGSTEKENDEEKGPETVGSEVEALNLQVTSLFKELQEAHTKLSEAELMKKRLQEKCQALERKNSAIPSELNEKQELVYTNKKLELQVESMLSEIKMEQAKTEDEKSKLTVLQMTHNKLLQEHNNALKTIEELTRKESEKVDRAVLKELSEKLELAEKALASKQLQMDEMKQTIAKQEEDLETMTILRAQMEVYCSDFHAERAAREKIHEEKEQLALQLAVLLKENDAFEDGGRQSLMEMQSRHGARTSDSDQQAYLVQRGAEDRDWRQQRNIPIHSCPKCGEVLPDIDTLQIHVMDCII

First: B1
Second: B2
The “TBK1 bound to OPTN relative to wild type” value of the first is lower: 0.07 relative to TBK1 WT for the first, 0.2 relative to TBK1 WT for the second.

First: B3
Second: B4
The “TBK1 bound to OPTN relative to wild type” value of the first is lower: 0.04 relative to TBK1 WT for the first, 2.53 relative to TBK1 WT for the second.

First: B5
Second: B6
The “TBK1 bound to OPTN relative to wild type” value of the first is higher: 3.23 relative to TBK1 WT for the first, 0.17 relative to TBK1 WT for the second.

First: B7
Second: B8
The “TBK1 bound to OPTN relative to wild type” value of the first is higher: 0.14 relative to TBK1 WT for the first, 0.05 relative to TBK1 WT for the second.
